Experiment [1] has as its target Recombinant human IL-13 (R&D Systems, MN, catalog no. 213-ILB/CF) (human) (UniProt P35225). The experiment is described as follows: sandwich pair screen, negative (blank) signal, binder is detection Ab; capture Ab 32116.
Experiment [2] shares this target. The experiment is described as follows: sandwich pair screen, negative (blank) signal, binder is detection Ab; capture Ab 4D7.
Experiment [3] shares this target. The experiment can be described thus: sandwich pair screen, 100 pg/mL recombinant IL-13, binder is detection Ab; capture Ab 228B/C.
Experiment [4] shares this target. The experiment is described as follows: sandwich pair screen, negative (blank) signal, binder is detection Ab; capture Ab 228B/C.
The target is the same in experiment [5]. The experiment can be described thus: sandwich pair screen, negative (blank) signal, binder is detection Ab; capture Ab MILR1444A.
The target is the same in experiment [6]. The experiment is described as follows: sandwich pair screen, 100 pg/mL recombinant IL-13, binder is detection Ab; capture Ab 11H4.
Experiment [7] has the same target. The experiment is described as follows: sandwich pair screen, 100 pg/mL recombinant IL-13, binder is detection Ab; capture Ab MILR1444A.
Experiment [8] shares this target. The experiment can be described thus: sandwich pair screen, 100 pg/mL recombinant IL-13, binder is detection Ab; capture Ab 4D7.
For experiment [9] the target is unchanged. The experiment is described as follows: sandwich pair screen, 100 pg/mL recombinant IL-13, binder is detection Ab; capture Ab 14C9.
Experiment [10] shares this target. The experiment is described as follows: sandwich pair screen, negative (blank) signal, binder is detection Ab; capture Ab 8C11.
Experiment [11] has the same target. The experiment can be described thus: sandwich pair screen, negative (blank) signal, binder is detection Ab; capture Ab 11H4.
The target is the same in experiment [12]. The experiment is described as follows: sandwich pair screen, 100 pg/mL recombinant IL-13, binder is detection Ab; capture Ab 32116.
Experiment [13] has the same target. The experiment can be described thus: sandwich pair screen, 100 pg/mL recombinant IL-13, binder is detection Ab; capture Ab 8C11.
Experiment [14] shares this target. The experiment is described as follows: sandwich pair screen, negative (blank) signal, binder is detection Ab; capture Ab 14C9.

The text below walks through data of patent US20180356429A1.

Sequence of Recombinant human IL-13 (R&D Systems, MN, catalog no. 213-ILB/CF) (human) (P35225 other isoform, or with tags, fused parts or gaps): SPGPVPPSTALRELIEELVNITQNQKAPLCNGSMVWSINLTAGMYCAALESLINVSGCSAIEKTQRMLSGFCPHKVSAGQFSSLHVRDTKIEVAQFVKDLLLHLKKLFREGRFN

In the case of “MAB213 (R&D Systems, MN, Cat. No. MAB213) (antibody)”, the Assay Signal Neg (blank) turned out to be 17.2 in [1]; 21.7 in [2]; 26.5 in experiment [4]; 0.3 in [5]; 3.9 in [10]; 23.2 in [11]. Also, in experiment [14], the Assay Signal Neg (blank) is 30. For the same substance, the Assay Signal Pos in [3] was determined as 52.7; in experiment [6], 2310; in experiment [7] it was 47.2; in experiment [8], 23.6; in [9], 33.2; in [12], 18.2. In addition, in [13], the Assay Signal Pos was 4.1.
